Several values for one entry are separate records, joined by “and”; a condition that tells them apart may be missing. Equal entries are not always repeated. A value given as a limit tells only on which side of the number the result lay.

Two molecules from PMC7427095 (2020) can be followed below.

The target in assay [1] is HA4-AsLOV2 (SS58 insertion, V416L mutant) (Avena sativa). The experiment in a line: BLI; Octet RED96e; 6x-histidine tagged OptoMB variant loaded on Ni-NTA sensors, YFP-SH2 in solution at several concentrations; Buffer A (Tris 50 mM pH 8.0, NaCl 150 mM); illumination: 450 nm light (blue LED panel above the plate, lid open); binding and unbinding curves fitted together to a mass-action model; single experiments. (In general: In BLI a coated tip is dipped into the sample, and binding shifts an interference pattern.)

In assay [2] the target is His6-HA4-AsLOV2 (SS58 insertion, C450V mutant) (Avena sativa). The assay is described as above.
Assay [3] has as its target HA4-AsLOV2 (SS58 insertion, V416L mutant) (Avena sativa). Description: BLI; Octet RED96e; 6x-histidine tagged OptoMB variant loaded on Ni-NTA sensors, YFP-SH2 in solution at several concentrations; Buffer A (Tris 50 mM pH 8.0, NaCl 150 mM); illumination: ambient (ambient laboratory light and the instrument's internal light sufficed to trigger the lit conformation of the light-sensitive constructs); binding and unbinding curves fitted together to a mass-action model; single experiments.

Assay [4] addresses His6-HA4-AsLOV2 (SS58 insertion): αSH2-OptoMB (Avena sativa). Described as above.
The target in assay [5] is His6-HA4-AsLOV2 (SS58 insertion, C450V mutant) (Avena sativa). Described as above.
In assay [6] the target is His6-SUMO-HA4-AsLOV2 (SS58 insertion, V416I, G528A, N538E mutant) (Avena sativa). The assay is described as above.
The target in assay [7] is T1, OptoMB_(C450V), His-tagged (Avena sativa, UniProt O49003 408-543, C450V). Description: BLI; dark.
In assay [8] the target is T1, OptoMB_(C450V), His-tagged. The experiment in a line: BLI; dark. The source holds these as a separate data set.
In assay [9] the target is T2, OptoMB_(V416L), His-tagged (Avena sativa, UniProt O49003 408-543, V416L). The experiment in a line: BLI; light.
The target of assay [10] is T2, OptoMB_(V416L), His-tagged. Description: BLI; light. This is another data set of the same source.
Assay [11] addresses Monobody HA4 (6x-histidine tagged). The experiment in a line: BLI; Octet RED96e; His-tagged HA4 loaded on Ni-NTA sensors, YFP-SH2 in solution; Buffer A (Tris 50 mM pH 8.0, NaCl 150 mM); state of illumination not given ('–').
For assay [12], the target named is T1, OptoMB_(C450V), His-tagged. Description: BLI; DARK conformation: Octet RED96e, no external light source; His-tagged OptoMB_(C450V) loaded on Ni-NTA sensors, YFP-SH2 in solution; Buffer A (Tris 50 mM pH 8.0, NaCl 150 mM).
Assay [13] concerns the target T2, OptoMB_(V416L), His-tagged. The experiment in a line: BLI; LIGHT conformation: Octet RED96e with the lid open and a blue LED panel above the plate (for the V416I-G528A-N538E variant pre-illumination); His-tagged OptoMB variants loaded on Ni-NTA sensors, YFP-SH2 in solution; Buffer A (Tris 50 mM pH 8.0, NaCl 150 mM).
In assay [14] the target is αSH2 OptoMonobody (OptoMB), His-tagged, wild-type AsLOV2 (Avena sativa) (UniProt O49003). The description is as above.

B1: YFP-SH2 (fusion of yellow fluorescent protein and the SH2 domain of human Abl kinase), purified (domain or fragment)
chain: SLEKHSWYHGPVSRNAAEYLLSSGINGSFLVRESESSPGQRSISLRYEGRVYHYRINTASDGKLYVSSESRFNTLAELVHHHSTVADGLITTLHYPAPKRNKPTVYGVSPNY
In general, Kd refers to the constant that tells how readily two partners part at equilibrium. As a reminder, the koff is the rate constant with which the complex falls apart. Read a low koff as a long-lived complex. As a reminder, the kon is the second-order rate constant of association. Read a low kon as slower complex formation. B1: the dissociation constant (Kd) in assay [1] is 60 µM and 42 µM; in assay [2], 0.27 µM; in assay [3], 87 µM; in assay [4], greater than 100 µM; in assay [5], 0.06 µM and 0.23 µM; in assay [6], greater than 100 µM. Besides, the koff in [1] was 0.2 s⁻¹ and 0.24 s⁻¹; in assay [2], 0.013 s⁻¹; in assay [3], 0.25 s⁻¹; in assay [5], 0.006 s⁻¹ and 0.013 s⁻¹. For the same molecule, the kon in assay [1] is 3300 M⁻¹ s⁻¹ and 5800 M⁻¹ s⁻¹; in assay [2], 48000 M⁻¹ s⁻¹; in assay [3] it was 2900 M⁻¹ s⁻¹; in assay [4], less than 1000 M⁻¹ s⁻¹; in assay [5] it was 110000 M⁻¹ s⁻¹ and 56000 M⁻¹ s⁻¹; in assay [6], less than 1000 M⁻¹ s⁻¹.

B2: YFP-SH2, purified (fusion of YFP and the SH2 domain of human Abl kinase) (domain or fragment)
chain: B1 chain
As to B2, the Kd was 0.0569 µM in assay [7]; 86.7 µM in assay [9]; 0.23 µM in [11]; 0.19 µM in assay [12]; 63 µM in assay [13]; greater than 100 µM in assay [14]. Further, the koff in assay [8] was 0.00599 s⁻¹; in assay [10], 0.254 s⁻¹; in assay [11], 0.0145 s⁻¹; in assay [12], 0.01 s⁻¹; in [13] it was 0.23 s⁻¹. The kon in [11] was 63100 M⁻¹ s⁻¹; in assay [12], 71000 M⁻¹ s⁻¹; in assay [13], 4000 M⁻¹ s⁻¹; in assay [14] it was less than 1000 M⁻¹ s⁻¹.
